Measurements as given in patent US20040110930A1.
“And” between values parts separate entries of the source, which are not always exact repeats. Identical values can stand only once.

Experiments:
38C13 scFv protein [1] = test: ELISA, coated 38C13 scFv 5 ug/ml; 0.049 ng Fab; background subtracted
38C13 scFv protein [2] = test: ELISA, coated 38C13 scFv 5 ug/ml; 0.098 ng Fab; background subtracted
38C13 scFv protein [3] = test: ELISA, coated 38C13 scFv 5 ug/ml; 0.195 ng Fab; background subtracted
38C13 scFv protein [4] = test: ELISA, coated 38C13 scFv 5 ug/ml; 0.391 ng Fab; background subtracted
38C13 scFv protein [5] = test: ELISA, coated 38C13 scFv 5 ug/ml; 0.781 ng Fab; background subtracted
38C13 scFv protein [6] = test: ELISA, coated 38C13 scFv 5 ug/ml; 1.563 ng Fab; background subtracted
38C13 scFv protein [7] = test: ELISA, coated 38C13 scFv 5 ug/ml; 3.125 ng Fab; background subtracted
38C13 scFv protein [8] = test: ELISA, coated 38C13 scFv 5 ug/ml; 6.250 ng Fab; background subtracted
38C13 scFv protein [9] = test: ELISA, coated 38C13 scFv 5 ug/ml; 12.500 ng Fab; background subtracted
38C13 scFv protein [10] = test: ELISA, coated 38C13 scFv 5 ug/ml; 25.000 ng Fab; background subtracted
38C13 scFv protein [11] = test: ELISA, coated 38C13 scFv 5 ug/ml; 50.000 ng Fab; background subtracted
38C13 scFv protein [12] = test: ELISA, coated 38C13 scFv 5 ug/ml; 0.146 ng MAb; background subtracted
38C13 scFv protein [13] = test: ELISA, coated 38C13 scFv 5 ug/ml; 0.293 ng MAb; background subtracted
38C13 scFv protein [14] = test: ELISA, coated 38C13 scFv 5 ug/ml; 0.586 ng MAb; background subtracted
38C13 scFv protein [15] = test: ELISA, coated 38C13 scFv 5 ug/ml; 1.172 ng MAb; background subtracted
38C13 scFv protein [16] = test: ELISA, coated 38C13 scFv 5 ug/ml; 2.344 ng MAb; background subtracted
38C13 scFv protein [17] = test: ELISA, coated 38C13 scFv 5 ug/ml; 4.688 ng MAb; background subtracted
38C13 scFv protein [18] = test: ELISA, coated 38C13 scFv 5 ug/ml; 9.375 ng MAb; background subtracted
38C13 scFv protein [19] = test: ELISA, coated 38C13 scFv 5 ug/ml; 18.750 ng MAb; background subtracted
38C13 scFv protein [20] = test: ELISA, coated 38C13 scFv 5 ug/ml; 37.500 ng MAb; background subtracted
38C13 scFv protein [21] = test: ELISA, coated 38C13 scFv 5 ug/ml; 75.000 ng MAb; background subtracted
38C13 scFv protein [22] = test: ELISA, coated 38C13 scFv 5 ug/ml; 150.000 ng MAb; background subtracted

B1: control S1C5 Fab produced from mouse ascites MAb using the ImmunoPure Fab Kit (Fab, V domains shown)
VH: EVKLEQSGAELVKPGASVKISCKASGYTFTDHVIHWVKQRPEQGLEWIGFISPGNGDIRYNEKFKDKATLTADKSSSTAYMQLNSLTSEDSAVYFCKRSFYYYDDNYGDYWGQGTTLTVSS
VL: QIVLTQSPAIMSASLGERVTMTCTASSSVSSSYFHWYQQKPGSSPKLWIYTTSNLASGVPARFSGSGSGTSYSLTISSMEAEDAATYYCHQYHRSPLTFGAGTKLELKR
In the case of B1, the A450 (38C13 scFv protein [1]) is reported as 0.008 A450 and 0.003 A450, the A450 (38C13 scFv protein [2]) is reported as 0.009 A450 and 0.018 A450 and the A450 (38C13 scFv protein [3]) is reported as 0.03 A450 and 0.023 A450. The A450 (38C13 scFv protein [4]) was 0.047 A450 and 0.05 A450, the A450 (38C13 scFv protein [5]) was 0.095 A450 and 0.094 A450 and the A450 (38C13 scFv protein [6]) was 0.168 A450 and 0.171 A450. For the same binder, the A450 (38C13 scFv protein [7]) was 0.273 A450 and 0.266 A450, the A450 (38C13 scFv protein [8]) was 0.346 A450 and 0.363 A450 and the A450 (38C13 scFv protein [9]) was 0.46 A450 and 0.465 A450. The A450 (38C13 scFv protein [10]) was 0.498 A450 and 0.51 A450 and the A450 (38C13 scFv protein [11]) was 0.481 A450 and 0.516 A450.

B2: pLSBC1798 produced S1C5 MAb (antibody, V domains shown)
VH: B1 VH
VL: B1 VL
With B2 the A450 (38C13 scFv protein [12]) was 0.007 A450 and 0.004 A450, the A450 (38C13 scFv protein [13]) was 0.014 A450 and 0.015 A450 and the A450 (38C13 scFv protein [14]) was 0.03 A450 and 0.029 A450. The A450 (38C13 scFv protein [15]) was 0.061 A450, the A450 (38C13 scFv protein [16]) was 0.106 A450 and 0.113 A450 and the A450 (38C13 scFv protein [17]) was 0.198 A450 and 0.194 A450. For the same binder, the A450 (38C13 scFv protein [18]) was 0.295 A450 and 0.307 A450, the A450 (38C13 scFv protein [19]) was 0.39 A450 and 0.397 A450 and the A450 (38C13 scFv protein [20]) was 0.477 A450 and 0.482 A450. For the same binder, the A450 (38C13 scFv protein [21]) was 0.514 A450 and 0.517 A450 and the A450 (38C13 scFv protein [22]) was 0.521 A450 and 0.52 A450.

B3: pLSBC1792 produced S1C5 Fab (Fab, V domains shown)
VH: B1 VH
VL: B1 VL
In the case of B3, the A450 (38C13 scFv protein [1]) is reported as 0.01 A450 and 0.011 A450, the A450 (38C13 scFv protein [2]) is reported as 0.025 A450 and 0.019 A450 and the A450 (38C13 scFv protein [3]) is reported as 0.049 A450 and 0.041 A450. The A450 (38C13 scFv protein [4]) was 0.09 A450 and 0.094 A450, the A450 (38C13 scFv protein [5]) was 0.168 A450 and 0.154 A450 and the A450 (38C13 scFv protein [6]) was 0.263 A450 and 0.247 A450. The A450 (38C13 scFv protein [7]) was 0.366 A450 and 0.35 A450, the A450 (38C13 scFv protein [8]) was 0.468 A450 and 0.449 A450 and the A450 (38C13 scFv protein [9]) was 0.487 A450 and 0.485 A450. The A450 (38C13 scFv protein [10]) was 0.521 A450 and 0.519 A450 and the A450 (38C13 scFv protein [11]) was 0.524 A450 and 0.504 A450.

B4: Control S1C5 MAb from mouse ascites fluid (antibody, V domains shown)
VH: B1 VH
VL: B1 VL
For B4, the A450 (38C13 scFv protein [12]) was 0.012 A450 and 0.01 A450, the A450 (38C13 scFv protein [13]) was 0.025 A450 and 0.023 A450 and the A450 (38C13 scFv protein [14]) was 0.053 A450 and 0.047 A450. For the same binder, the A450 (38C13 scFv protein [15]) was 0.105 A450 and 0.096 A450, the A450 (38C13 scFv protein [16]) was 0.18 A450 and 0.179 A450 and the A450 (38C13 scFv protein [17]) was 0.283 A450 and 0.284 A450. The A450 (38C13 scFv protein [18]) was 0.39 A450 and 0.395 A450, the A450 (38C13 scFv protein [19]) was 0.476 A450 and 0.429 A450 and the A450 (38C13 scFv protein [20]) was 0.443 A450 and 0.497 A450. For the same binder, the A450 (38C13 scFv protein [21]) was 0.532 A450 and 0.515 A450 and the A450 (38C13 scFv protein [22]) was 0.517 A450 and 0.538 A450.
